The test system of the series is Bacillus subtilis. Put plainly: cleaved RNA product abundance (RNA/gDNA barcode ratio) relative to median wild-type variant (ratio to wild type); higher = more accumulation of the downstream cleavage product. To be noted: experiment (reporter, strain, medium): exp 8a: truncated aprE reporter, strain BJT201 with 2% xylose (RNase J1 expressed); cleavage site: glnRA (positions -5 to +31 mutated). Summed up: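 In LB at 37°C, B. subtilis cultures went from OD600 0.0003 to 0.3. Their chromosomes held barcoded reporter mRNAs, truncated aprE or tetM, with RNase Y cleavage-site windows mutagenized via oligos at a 9% error rate. Cleaved RNA, chosen by gel, was reverse transcribed and barcode-sequenced alongside genomic DNA barcodes with UMI collapsing, giving a per-construct RNA:gDNA ratio scaled to the median construct with the unmutated site. This scaled ratio is termed cleaved product abundance.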
As to “CGACATGTCCCGCTTCTTTCATTAATCCGTTACCAACTGTTATGCTATATACATTTACCTTTTAAGAGGAGGAAT”, the “cleaved RNA product abundance” value amounted to 0.307. In the case of “CGACATGTCCCGCTTCTTTCATTAATCCGTTACCAACTGTTGTGCTATATACATTTACCTTTTAAGAGGAGGAAT”, the “cleaved RNA product abundance” value turned out to be 0.182.

Regarding “CGACATGTCCCGCTTCTTTCATTAATCCGTTACCAACTGTTTAGCTATATACATTTACCTTTTAAGAGGAGGAAT”, the “cleaved RNA product abundance” value was 0.208. Consider “CGACATGTCCCGCTTCTTTCATTAATCCGTTACCAACTGTTTTACTATATACATTTACCTTTTAAGAGGAGGAAT”, for which the “cleaved RNA product abundance” value turned out to be 0.204. In the case of “CGACATGTCCCGCTTCTTTCATTAATCCGTTACCAACTGTTTTCCTATATACATTTACCTTTTAAGAGGAGGAAT”, the “cleaved RNA product abundance” value was 0.203.

For the sequence “CGACATGTCCCGCTTCTTTCATTAATCCGTTACCAACTGTTTTGATATATACATTTACCTTTTAAGAGGAGGAAT”, the “cleaved RNA product abundance” value amounted to 0.276.

For “CGACATGTCCCGCTTCTTTCATTAATCCGTTACCAACTGTTTTGCAATATACATTTACCTTTTAAGAGGAGGAAT”, the “cleaved RNA product abundance” value was 0.26.

Regarding “CGACATGTCCCGCTTCTTTCATTAATCCGTTACCAACTGTTTTGCCATATACATTTACCTTTTAAGAGGAGGAAT”, the “cleaved RNA product abundance” value was found to be 0.145. Take “CGACATGTCCCGCTTCTTTCATTAATCCGTTACCAACTGTTTTGCGATATACATTTACCTTTTAAGAGGAGGAAT”: the “cleaved RNA product abundance” value was 0.264. As for “CGACATGTCCCGCTTCTTTCATTAATCCGTTACCAACTGTTTTGCTAAATACATTTACCTTTTAAGAGGAGGAAT”, the figure is 0.169; as for “CGACATGTCCCGCTTCTTTCATTAATCCGTTACCAACTGTTTTGCTACATACATTTACCTTTTAAGAGGAGGAAT”, 0.326. Turning to “CGACATGTCCCGCTTCTTTCATTAATCCGTTACCAACTGTTTTGCTATACACATTTACCTTTTAAGAGGAGGAAT”, the “cleaved RNA product abundance” value turned out to be 0.212. For the sequence “CGACATGTCCCGCTTCTTTCATTAATCCGTTACCAACTGTTTTGCTATATAAATTTACCTTTTAAGAGGAGGAAT”, the “cleaved RNA product abundance” value amounted to 0.163.

For “CGACATGTCCCGCTTCTTTCATTAATCCGTTACCAACTGTTTTGCTATATACAATTACCTTTTAAGAGGAGGAAT”, the “cleaved RNA product abundance” value is 0.181.

For “CGACATGTCCCGCTTCTTTCATTAATCCGTTACCAACTGTTTTGCTATATACATCTACCTTTTAAGAGGAGGAAT”, the “cleaved RNA product abundance” value is 0.23. As for “CGACATGTCCCGCTTCTTTCATTAATCCGTTACCAACTGTTTTGCTATATACATTAACCTTTTAAGAGGAGGAAT”, the figure is 0.238; as for “CGACATGTCCCGCTTCTTTCATTAATCCGTTACCAACTGTTTTGCTATATACATTTAACTTTTAAGAGGAGGAAT”, 0.282; as for “CGACATGTCCCGCTTCTTTCATTAATCCGTTACCAACTGTTTTGCTATATACATTTACATTTTAAGAGGAGGAAT”, 0.209. Consider “CGACATGTCCCGCTTCTTTCATTAATCCGTTACCAACTGTTTTGCTATATACATTTACCGTTTAAGAGGAGGAAT”, for which the “cleaved RNA product abundance” value amounted to 0.173. As for “CGACATGTCCCGCTTCTTTCATTAATCCGTTACCAACTGTTTTGCTATATACATTTACCTTTTAAGAGGAGGAAT”, the figure is 0.255; as for “CGACATGTCCCGCTTCTTTCATTAATCCGTTACCAACTGTTTTGCTATATACATTTACTTTTTAAGAGGAGGAAT”, 0.208; as for “CGACATGTCCCGCTTCTTTCATTAATCCGTTACCAACTGTTTTGCTATATACATTTATCTTTTAAGAGGAGGAAT”, 0.306. As for “CGACATGTCCCGCTTCTTTCATTAATCCGTTACCAACTGTTTTGCTATATACATTTCCCTTTTAAGAGGAGGAAT”, the figure is 0.127.

Consider “CGACATGTCCCGCTTCTTTCATTAATCCGTTACCAACTGTTTTGCTATATACATTTTCCTTTTAAGAGGAGGAAT”, for which the “cleaved RNA product abundance” value came to 0.231. As for “CGACATGTCCCGCTTCTTTCATTAATCCGTTACCAACTGTTTTGCTATATACCTTTACCTTTTAAGAGGAGGAAT”, the figure is 0.153; as for “CGACATGTCCCGCTTCTTTCATTAATCCGTTACCAACTGTTTTGCTATATACGTTTACCTTTTAAGAGGAGGAAT”, 0.253. As for “CGACATGTCCCGCTTCTTTCATTAATCCGTTACCAACTGTTTTGCTATATACTTTTACCTTTTAAGAGGAGGAAT”, the figure is 0.145; as for “CGACATGTCCCGCTTCTTTCATTAATCCGTTACCAACTGTTTTGCTATATAGATTTACCTTTTAAGAGGAGGAAT”, 0.226; as for “CGACATGTCCCGCTTCTTTCATTAATCCGTTACCAACTGTTTTGCTATATATATTTACCTTTTAAGAGGAGGAAT”, 0.212. “CGACATGTCCCGCTTCTTTCATTAATCCGTTACCAACTGTTTTGCTATATCCATTTACCTTTTAAGAGGAGGAAT”: the “cleaved RNA product abundance” value is 0.206. As for “CGACATGTCCCGCTTCTTTCATTAATCCGTTACCAACTGTTTTGCTATTTACATTTACCTTTTAAGAGGAGGAAT”, the figure is 0.118; as for “CGACATGTCCCGCTTCTTTCATTAATCCGTTACCAACTGTTTTGTTATATACATTTACCTTTTAAGAGGAGGAAT”, 0.231; as for “CGACATGTCCCGCTTCTTTCATTAATCCGTTACCAACTGTTTTTCTATATACATTTACCTTTTAAGAGGAGGAAT”, 0.234. Turning to “CGACATGTCCCGCTTCTTTCATTAATCCGTTACCAACTTTTTTGCTATATACATTTACCTTTTAAGAGGAGGAAT”, the “cleaved RNA product abundance” value amounted to 0.225. Regarding “CGACATGTCCCGCTTCTTTCATTAATCCGTTACCAAGTGTTTTGCTATATACATTTACCTTTTAAGAGGAGGAAT”, the “cleaved RNA product abundance” value is 0.272. As for “CGACATGTCCCGCTTCTTTCATTAATCCGTTACCAATTGTTTTGCTATATACATTTACCTTTTAAGAGGAGGAAT”, the figure is 0.16; as for “CGACATGTCCCGCTTCTTTCATTAATCCGTTACCATCTGTTTTGCTATATACATTTACCTTTTAAGAGGAGGAAT”, 0.163. For “CGACATGTCCCGCTTCTTTCATTAATCCGTTACCGACTGTTTTGCTATATACATTTACCTTTTAAGAGGAGGAAT”, the “cleaved RNA product abundance” value stood at 0.269. Take “CGACATGTCCCGCTTCTTTCATTAATCCGTTACCTACTGTTTTGCTATATACATTTACCTTTTAAGAGGAGGAAT”: the “cleaved RNA product abundance” value turned out to be 0.443. Take “CGACATGTCCCGCTTCTTTCATTAATCCGTTACGAACTGTTTTGCTATATACATTTACCTTTTAAGAGGAGGAAT”: the “cleaved RNA product abundance” value came out at 0.291.

As to “CGACATGTCCCGCTTCTTTCATTAATCCGTTACTAACTGTTTTGCTATATACATTTACCTTTTAAGAGGAGGAAT”, the “cleaved RNA product abundance” value is 0.155. As for “CGACATGTCCCGCTTCTTTCATTAATCCGTTAGAAAATGTTTTGCTATAAACATTTACCTTTTAAGAGGAGGAAT”, the figure is 0.166; as for “CGACATGTCCCGCTTCTTTCATTAATCCGTTAGAAAATGTTTTGCTATATACATTTACCTTTTAAGAGGAGGAAT”, 0.396. As for “CGACATGTCCCGCTTCTTTCATTAATCCGTTAGAAACAGTTTTGCTATATATATTTACATTTTAAGAGGAGGAAT”, the “cleaved RNA product abundance” value came out at 0.362. As for “CGACATGTCCCGCTTCTTTCATTAATCCGTTAGAAACTATTTTGCTATATACATTTACCTTTTAAGAGGAGGAAT”, the figure is 0.339. As for “CGACATGTCCCGCTTCTTTCATTAATCCGTTAGAAACTCTTTTGCTATATACATTTACCTTTTAAGAGGAGGAAT”, the figure is 0.377.

These data come from the supplement of paper PMC11780869.
